One block for each molecule: values may come before it. Non-standard residues stand in square brackets, D forms with d. QSY‑7 = quencher dye attached to Cys via maleimide; Rhodamine green = fluorophore at the N-terminus; βAla = NCCC(=O)O
Key:
human SEP = biological target: T1, human SEP (Homo sapiens, UniProt Q495T6); assay: Sensitivity of human SEP to inhibitors; type: biochemical
T1 construct: with the full length cDNA cloned into the pCMV6-XL4 vector; made in house; host or cells: CHO cells, transient transfection; dialysed culture medium
T1 sequence (Q495T6 75-779 limits assumed): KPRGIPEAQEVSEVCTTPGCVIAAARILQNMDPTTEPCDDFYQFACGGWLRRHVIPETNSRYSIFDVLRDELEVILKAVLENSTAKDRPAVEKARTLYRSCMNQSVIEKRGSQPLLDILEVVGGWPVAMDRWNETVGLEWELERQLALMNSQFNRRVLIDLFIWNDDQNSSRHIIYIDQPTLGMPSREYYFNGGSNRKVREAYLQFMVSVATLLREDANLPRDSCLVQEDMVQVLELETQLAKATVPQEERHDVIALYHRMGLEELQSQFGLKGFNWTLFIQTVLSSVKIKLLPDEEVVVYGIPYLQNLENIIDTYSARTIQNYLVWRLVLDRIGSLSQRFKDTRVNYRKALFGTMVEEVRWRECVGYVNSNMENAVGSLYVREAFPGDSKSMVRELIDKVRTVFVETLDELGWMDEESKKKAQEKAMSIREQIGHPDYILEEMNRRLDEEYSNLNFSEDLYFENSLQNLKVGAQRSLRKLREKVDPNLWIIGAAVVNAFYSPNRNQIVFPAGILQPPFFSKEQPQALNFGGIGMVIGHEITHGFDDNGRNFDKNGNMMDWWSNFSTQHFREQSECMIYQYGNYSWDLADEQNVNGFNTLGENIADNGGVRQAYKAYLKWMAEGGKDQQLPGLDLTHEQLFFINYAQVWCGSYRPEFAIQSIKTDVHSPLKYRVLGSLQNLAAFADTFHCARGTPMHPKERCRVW
Procedure: The enzymatic (proteolytic) activity of human SEP protein can be measured in an assay involving, for example, mixing a sample of the human SEP enzyme with a substrate peptide in a buffer solution (for example 50 mM HEPES; pH 7.4), incubating the mixture for a period of time (such as 1-3 hours) enough for human SEP to act to cleave a measurable portion of the peptide substrate to a product at a temperature suitable for SEP activity (typically 30-37° C.).
The effect of candidate human SEP inhibitor compounds or control test compounds such as phosphoramidon and thiorphan that may alter the activity of human SEP can be measured in this type of assay by including them in the initial mixture at a range of suitable test concentrations, typically 0.1 nM to 50 µM.
To determine the IC50 of SEP inhibitors (SEPi; for example, phosphoramidon), multiple SEP assays are performed as described above with a range of test concentrations of inhibitor included in the 50 μl of DMSO solution (made by appropriate dilution of a 10 mM 100% DMSO stock of inhibitor with 4% DMSO/50 mM HEPES pH7.4.). Using a suitable standard graph fitting computer program, a sigmoidal dose response curve is fitted to a plot of log inhibitor concentration versus MaxV (or % inhibition or % activity). The IC50 is calculated as the inhibitor concentration causing 50% maximal inhibition. […]

mouse SEP = biological target: T2, mouse SEP (Mus musculus, UniProt Q9JLI3); conditions: cited from earlier work
T2 sequence (Q9JLI3 1-765): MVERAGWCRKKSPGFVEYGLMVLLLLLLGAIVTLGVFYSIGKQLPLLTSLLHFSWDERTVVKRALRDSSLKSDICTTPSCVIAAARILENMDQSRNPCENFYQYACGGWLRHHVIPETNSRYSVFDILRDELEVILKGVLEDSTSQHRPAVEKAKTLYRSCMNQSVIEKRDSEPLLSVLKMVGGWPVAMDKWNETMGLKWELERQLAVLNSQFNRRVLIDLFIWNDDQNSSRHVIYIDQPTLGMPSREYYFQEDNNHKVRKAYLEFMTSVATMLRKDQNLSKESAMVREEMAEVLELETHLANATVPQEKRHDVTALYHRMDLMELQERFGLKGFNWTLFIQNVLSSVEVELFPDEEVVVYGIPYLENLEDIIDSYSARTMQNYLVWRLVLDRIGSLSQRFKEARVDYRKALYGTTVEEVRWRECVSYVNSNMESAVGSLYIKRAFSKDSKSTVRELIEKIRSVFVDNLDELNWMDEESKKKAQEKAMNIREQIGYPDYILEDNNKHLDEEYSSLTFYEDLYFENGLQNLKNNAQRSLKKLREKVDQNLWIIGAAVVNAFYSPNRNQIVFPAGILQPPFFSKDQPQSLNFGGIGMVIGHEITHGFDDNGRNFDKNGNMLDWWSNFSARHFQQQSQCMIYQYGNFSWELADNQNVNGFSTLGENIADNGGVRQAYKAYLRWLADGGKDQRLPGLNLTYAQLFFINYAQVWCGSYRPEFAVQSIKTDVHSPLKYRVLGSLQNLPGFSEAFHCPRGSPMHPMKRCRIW

NEP enzyme = biological target: T3, NEP enzyme (Homo sapiens, UniProt P08473); assay: NEP FRET assay (384 well, substrate CP4); type: biochemical; conditions: steady state kinetics of NEP with the peptide substrate
T3 construct: made in house; host or cells: Pichia pastoris
T3 sequence (P08473 whole entry): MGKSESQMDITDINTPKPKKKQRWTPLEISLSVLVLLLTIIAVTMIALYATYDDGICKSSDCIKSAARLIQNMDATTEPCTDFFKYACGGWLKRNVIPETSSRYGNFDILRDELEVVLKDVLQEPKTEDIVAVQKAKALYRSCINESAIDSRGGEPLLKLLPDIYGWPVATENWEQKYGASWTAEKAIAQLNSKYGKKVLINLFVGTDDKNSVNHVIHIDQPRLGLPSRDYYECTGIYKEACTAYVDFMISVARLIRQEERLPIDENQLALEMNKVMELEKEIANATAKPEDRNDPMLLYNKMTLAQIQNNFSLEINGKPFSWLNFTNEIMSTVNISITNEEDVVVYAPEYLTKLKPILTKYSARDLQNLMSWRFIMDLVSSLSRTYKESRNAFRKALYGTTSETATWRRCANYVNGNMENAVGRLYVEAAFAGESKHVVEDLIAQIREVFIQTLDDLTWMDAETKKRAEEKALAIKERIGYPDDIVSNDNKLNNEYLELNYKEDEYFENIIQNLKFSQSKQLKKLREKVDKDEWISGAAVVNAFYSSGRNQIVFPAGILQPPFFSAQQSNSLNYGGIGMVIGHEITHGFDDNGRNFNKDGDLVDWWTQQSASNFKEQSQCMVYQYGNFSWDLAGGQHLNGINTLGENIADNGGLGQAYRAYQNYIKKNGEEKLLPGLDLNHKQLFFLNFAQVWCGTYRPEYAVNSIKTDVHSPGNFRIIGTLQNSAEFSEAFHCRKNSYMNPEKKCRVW

[1] = biological target: T4, Rhodamine green-Gly-Gly-dPhe-Leu-Arg-Arg-Val-Cys(QSY-7)-betaAla-NH2
T4 chain: GGFLRRVCA

Molecule: O=C(O)CNC(=O)C(CS)Cc1ccccc1 (stereo not drawn) [thiorphan]
sensitivity of enzyme to inhibitor (human SEP): sensitive
sensitivity of enzyme to inhibitor (mouse SEP): sensitive

sensitivity of enzyme to inhibitor (human SEP): sensitive
Molecule: CC(C)C[C@H](NP(=O)(O)O[C@@H]1O[C@@H](C)[C@H](O)[C@@H](O)[C@H]1O)C(=O)N[C@@H](Cc1c[nH]c2ccccc12)C(=O)O [phosphoramidon]
sensitivity of enzyme to inhibitor (mouse SEP): sensitive

Molecule: Rhodamine green-Gly-Gly-dPhe-Leu-Arg-Arg-Val-Cys(QSY™-7)-βAla-NH2 ({Rhodamine green}-GG[dF]LRRVC(QSY‑7)[βAla]-NH2) [CP4]
Kcat (NEP enzyme): 0.083 s⁻¹
Km (NEP enzyme; recombinant human enzyme, 50 mM Hepes pH 8, 25° C.): 8 µM

B1: Recombinant human NEP (neutral endopeptidase) enzyme (protein)
chain: YDDGICKSSDCIKSAARLIQNMDATTEPCTDFFKYACGGWLKRNVIPETSSRYGNFDILRDELEVVLKDVLQEPKTEDIVAVQKAKALYRSCINESAIDSRGGEPLLKLLPDIYGWPVATENWEQKYGASWTAEKAIAQLNSKYGKKVLINLFVGTDDKNSVNHVIHIDQPRLGLPSRDYYECTGIYKEACTAYVDFMISVARLIRQEERLPIDENQLALEMNKVMELEKEIANATAKPEDRNDPMLLYNKMTLAQIQNNFSLEINGKPFSWLNFTNEIMSTVNISITNEEDVVVYAPEYLTKLKPILTKYSARDLQNLMSWRFIMDLVSSLSRTYKESRNAFRKALYGTTSETATWRRCANYVNGNMENAVGRLYVEAAFAGESKHVVEDLIAQIREVFIQTLDDLTWMDAETKKRAEEKALAIKERIGYPDDIVSNDNKLNNEYLELNYKEDEYFENIIQNLKFSQSKQLKKLREKVDKDEWISGAAVVNAFYSSGRNQIVFPAGILQPPFFSAQQSNSLNYGGIGMVIGHEITHGFDDNGRNFNKDGDLVDWWTQQSASNFKEQSQCMVYQYGNFSWDLAGGQHLNGINTLGENIADNGGLGQAYRAYQNYIKKNGEEKLLPGLDLNHKQLFFLNFAQVWCGTYRPEYAVNSIKTDVHSPGNFRIIGTLQNSAEFSEAFHCRKNSYMNPEKKCRVW
Kcat [1]: 0.083 s⁻¹
Kcat/Km [1]: 10,500 M^-1 S^-1
Km [1]: 8 µM

Reference: patent US6991916B2, “Compounds for the treatment of sexual dysfunction” (Pfizer Inc., priority 2000, dated 2006)
